Residue numbers refer to the chain shown, from its start.
Legend:
[1] = target: T1, MBP-SmMef2 (Schistosoma mansoni, UniProt G8JE45 1-730); experiment: EMSA; 5 mM MgCl2, poly(dI-dC); LightShift kit 1x binding buffer, 2.5% glycerol, 5 mM MgCl2, 50 ng/uL poly(dI-dC), 0.05% NP-40, 180 fmol hot dsDNA, 1.4 ug protein, 20 min room temperature; 5%; details: protein: recombinant; tags: N-terminal MBP (pMAL-c5x); chain copies: 2; label: 5' biotin on forward strand (hot); blunt
T1 sequence: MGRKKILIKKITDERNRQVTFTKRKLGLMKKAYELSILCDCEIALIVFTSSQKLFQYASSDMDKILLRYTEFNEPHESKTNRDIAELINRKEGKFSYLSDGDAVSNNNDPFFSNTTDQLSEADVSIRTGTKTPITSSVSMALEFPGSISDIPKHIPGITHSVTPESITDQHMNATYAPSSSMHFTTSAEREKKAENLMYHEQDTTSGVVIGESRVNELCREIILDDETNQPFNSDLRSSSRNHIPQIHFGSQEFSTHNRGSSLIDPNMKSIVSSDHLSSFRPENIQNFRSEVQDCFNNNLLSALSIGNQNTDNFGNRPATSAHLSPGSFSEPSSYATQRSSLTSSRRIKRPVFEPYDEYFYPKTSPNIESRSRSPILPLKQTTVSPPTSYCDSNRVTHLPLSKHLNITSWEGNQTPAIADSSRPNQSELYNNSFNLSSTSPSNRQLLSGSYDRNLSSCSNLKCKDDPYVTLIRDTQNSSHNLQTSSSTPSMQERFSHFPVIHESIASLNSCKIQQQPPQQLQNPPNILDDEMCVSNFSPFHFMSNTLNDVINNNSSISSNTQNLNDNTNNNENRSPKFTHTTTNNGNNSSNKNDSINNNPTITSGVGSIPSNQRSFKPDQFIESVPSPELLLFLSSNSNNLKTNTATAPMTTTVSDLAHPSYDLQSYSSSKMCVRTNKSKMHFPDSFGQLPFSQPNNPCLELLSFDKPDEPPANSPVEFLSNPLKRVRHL

[2] = target: T1, MBP-SmMef2; experiment: competition; 200x cold vs labeled AT12 or AT13; LightShift kit 1x binding buffer, 2.5% glycerol, 5 mM MgCl2, 50 ng/uL poly(dI-dC), 0.05% NP-40, 180 fmol hot dsDNA, 1.4 ug protein, 20 min room temperature; 5%; details: protein: recombinant; tags: N-terminal MBP (pMAL-c5x); chain copies: 2; blunt

B1: AT13 (M. polymorpha Mef2 site) (dsDNA)
DNA 1: GCTGAAGGATCTATATATAGGCGGATCGGC
DNA 2: GCCGATCCGCCTATATATAGATCCTTCAGC
- binding result [1]: binds

B2: AT11 (Drosophila Actin57B Mef2 site) (dsDNA)
DNA 1: B1 DNA 1 with A15T, A17T
DNA 2: B1 DNA 2 with T14A, T16A
- binding result [1]: binds

B3: AT12 (common Mef2 consensus) (dsDNA)
DNA 1: B1 DNA 1 with T14A, T16A
DNA 2: B1 DNA 2 with A15T, A17T
- binding result [1]: binds

B4: AT14 (Ndt80 MSE negative control) (dsDNA)
DNA 1: GCTGAAGGATGTCACAAAATGCGGATCGGC
DNA 2: GCCGATCCGCATTTTGTGACATCCTTCAGC
- binding result [2]: no binding
